Laboratory results as given in patent US20180303898A1 (SANFORD BURNHAM PREBYS MEDICAL DISCOVERY INSTITUTE, published 2018).
Bridges are numbered along the chain shown (N, C = ends). Where no end group is shown, it is not given here. FAM = 5(6)-carboxyfluorescein; Ahx = NCCCCCC(=O)O

Tests used:
[1] = target: T1, recombinant 6x-His-tagged p32 protein (p32/p33/gC1qR/HABP1) (UniProt Q07021 74-282); test: fluorescence polarization, FAM-labeled peptide constant, p32 titrated (FIG. 2A)
T1 construct: not shown: 6x-His tag
T1 sequence (looked up): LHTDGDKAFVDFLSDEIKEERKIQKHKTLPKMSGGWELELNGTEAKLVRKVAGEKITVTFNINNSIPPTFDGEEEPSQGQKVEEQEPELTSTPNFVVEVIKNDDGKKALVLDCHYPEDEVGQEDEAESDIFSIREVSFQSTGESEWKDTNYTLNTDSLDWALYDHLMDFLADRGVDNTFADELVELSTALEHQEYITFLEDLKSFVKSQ
Method: FIGS. 2A-2D are graphs showing FP- and phage binding-based validation of p32 binding peptides and hit compounds. […] Measurements were performed with PheraStar FS plate reader (BMG Labtech, Ortenberg, Germany) on 384-well plate. […] (C) Assessment of hit compound binding to a non-target secondary protein, NRP-1, to determine the specificity of the hit compounds in FP assay. A known NRP-1 binding peptide, RPARPAR (SEQ ID NO:18), was used as a control. (D) Effect of the hit compounds on the TT1 phage binding to p32 protein. TT1 phage binding to p32 in the presence of 100 μM hit compounds was determined in ELISA-type of binding assay. Each data point presents average±S.D., n=4.
The assay was initially set up in 20 μl well volume in 384 well plate (Corning Life Sciences), and measurements were carried out using PheraStar FS plate reader (BMG LABTECH, Ortenberg, Germany) in quadruplicate. […] Optimal concentration of fluorescein (FAM) labeled-peptides for the assay was determined by measuring the limit of detection (LOD), signal-to-background ratio (S/B), and stability of mP value over series of peptide concentrations. In the binding assay, the concentration of FAM-peptide was kept constant, and the FP was measured over the range of target protein concentrations. […]

[2] = target: T1, recombinant 6x-His-tagged p32 protein …; test: fluorescence polarization, FAM-TT1 constant, p32 titrated, in BIS-TRIS buffer
Method: FIG. 6 is a graph showing the effect of buffer solution on interaction of TT1 and p32. The binding affinity of FAM-labeled TT1 to p32 was studied in different assay buffers: in PBS, HEPES, and BIS-TRIS, respectively. The binding was measured by fluorescence polarization (FP) and observed as increased FP value. Binding constants (KD) were calculated by fitting the binding curves into Michaelis-Menten kinetics. Each data point presents average±S.D., n=4-6.
The assay was initially set up in 20 μl well volume in 384 well plate (Corning Life Sciences), and measurements were carried out using PheraStar FS plate reader (BMG LABTECH, Ortenberg, Germany) in quadruplicate. Peptide and protein stock solutions were diluted to desired concentration with assay buffer (50 mM BIS-TRIS pH 7.4, 0.05% Tween20, 1 mM DTT). FAM-labeled peptides were protected from light during the experiment to avoid photobleaching. Optimal concentration of fluorescein (FAM) labeled-peptides for the assay was determined by measuring the limit of detection (LOD), signal-to-background ratio (S/B), and stability of mP value over series of peptide concentrations. In the binding assay, the concentration of FAM-peptide was kept constant, and the FP was measured over the range of target protein concentrations. […]

[3] = target: T2, b1b2 domain of neuropilin-1 (NRP-1), recombinant (UniProt O14786 273-586, limits assumed); test: fluorescence polarization, recombinant b1b2 domain of NRP-1
T2 construct: domain: b1b2 domain; also called NRP-1 b1b2; b1b2 domain of NRP-1
T2 sequence (looked up): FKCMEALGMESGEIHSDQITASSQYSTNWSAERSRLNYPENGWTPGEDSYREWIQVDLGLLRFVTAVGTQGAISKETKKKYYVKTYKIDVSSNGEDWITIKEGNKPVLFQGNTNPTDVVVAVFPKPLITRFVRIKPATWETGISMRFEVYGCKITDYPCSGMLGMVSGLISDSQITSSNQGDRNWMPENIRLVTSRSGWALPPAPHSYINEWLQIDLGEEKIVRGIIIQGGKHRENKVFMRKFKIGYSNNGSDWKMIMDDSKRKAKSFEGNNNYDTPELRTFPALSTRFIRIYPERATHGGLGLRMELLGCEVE
Method: FIG. 8 is a graph showing specificity of TT1 binding. Specificity of TT1 was further evaluated by measuring the binding of FAM-TT1 to recombinant non-target protein, b1b2 domain of neuropilin-1 (NRP-1). The binding was studied by fluorescence polarization. […] Each data point presents average±S.D., n=4-6.
The assay was initially set up in 20 μl well volume in 384 well plate (Corning Life Sciences), and measurements were carried out using PheraStar FS plate reader (BMG LABTECH, Ortenberg, Germany) in quadruplicate. Peptide and protein stock solutions were diluted to desired concentration with assay buffer (50 mM BIS-TRIS pH 7.4, 0.05% Tween20, 1 mM DTT). FAM-labeled peptides were protected from light during the experiment to avoid photobleaching. Optimal concentration of fluorescein (FAM) labeled-peptides for the assay was determined by measuring the limit of detection (LOD), signal-to-background ratio (S/B), and stability of mP value over series of peptide concentrations. In the binding assay, the concentration of FAM-peptide was kept constant, and the FP was measured over the range of target protein concentrations. The peptide dissociation constant (KD) was obtained by fitting the binding curve into Michaelis-Menten kinetics in GraphPad Prism-software (GraphPad Software, Inc., CA, USA). […]

B1: FAM-labeled LyP-1 peptide (CGNKRTRGC) (peptide)
peptide: {FAM-Ahx}-CGNKRTRGC
modifications: disulfide 1-9 (inferred)
notes: also called FAM-LyP-1
For B1, the Kd [1] was 23 µM.

B2: FAM-labeled TT1 peptide (CKRGARSTC) (peptide)
peptide: {FAM-Ahx}-CKRGARSTC
modifications: disulfide (positions not given here); not fully specified (bridges); also: cyclic peptide, ring type not given here
notes: Synthetic fluorescent peptide used as the probe in the fluorescence polarization assays; also called FAM-TT1; FAM-TT-1
B2 was tested, and the Kd [2] was 2.3 µM and the binding result [3] was “no binding”.
